Experimental data from PMC2952653 (Journal of molecular biology, 2010).

Assays:
[1] = target: the molecule itself; experiment: multiangle light scattering
[2] = target: MEF2A (2-95), MADS-box/MEF2 domain (Homo sapiens, UniProt Q02078 2-95); experiment: X-ray crystallography

B1: MADS-box/MEF2 domain of human MEF2A (residues 2-95) (domain or fragment, UniProt Q02078 2-95, looked up)
chain: GRKKIQITRIMDERNRQVTFTKRKFGLMKKAYELSVLCDCEIALIIFNSSNKLFQYASTDMDKVLLKYTEYNEPHESRTNSDIVEALNKKEHRG
- stoichiometry N [1]: 2

B2: MEF2 site 14mer (crystal) (dsDNA)
DNA 1: AACTATTTATAAGA
DNA 2: TTCTTATAAATAGT
- binding result [2]: binds
